Results: patent US9879094B2, “Nucleic acid molecules encoding for BACE1 antibodies” (Genentech, Inc., priority 2010, dated 2018)

B1: LC4: affinity matured clone derived from Fab5 (antibody, V domains shown)
VL: DIQMTQSPSSLSASVGDRVTITCRASQSVSSAVAWYQQKPGKAPKLLIYSASSLYSGVPSRFSGSGSGTDFTLTISSLQPEDFATYYCQQYSYSLLTFGQGTKVEIK
VH: EISEVQLVESGGGLVQPGGSLRLSCAASGFNLSYSYIHWVRQAPGKGLEWVASIYSSYGSTYYADSVKGRFTISADTSKNTAYLQMNSLRAEDTAVYYCARSYHHSDKYYYAWSYALDYWGQGTLVTVSS
B2: LC40 (antibody, V domains shown)
VL: DIQMTQSPSSLSASVGDRVTITCRASQYSYSYSVAWYQQKPGKAPKLLISYASYLYSGVPSRFSGSGSGTDFTLTISSLQPEDFATYYCQQYSYSYSPITFGQGTKVEIK
VH: EISEVQLVESGGGLVQPGGSLRLSCAASGFNVSSSSMHWVRQAPGKGLEWVASIYPYSSSTSYADSVKGRFTISADTSKNTAYLQMNSLRAEDTAVYYCARYSYYSYGIDYWGQGTLVTVSS

Target: BACE1 (Homo sapiens, UniProt P56817)
Sequence (P56817 22-457): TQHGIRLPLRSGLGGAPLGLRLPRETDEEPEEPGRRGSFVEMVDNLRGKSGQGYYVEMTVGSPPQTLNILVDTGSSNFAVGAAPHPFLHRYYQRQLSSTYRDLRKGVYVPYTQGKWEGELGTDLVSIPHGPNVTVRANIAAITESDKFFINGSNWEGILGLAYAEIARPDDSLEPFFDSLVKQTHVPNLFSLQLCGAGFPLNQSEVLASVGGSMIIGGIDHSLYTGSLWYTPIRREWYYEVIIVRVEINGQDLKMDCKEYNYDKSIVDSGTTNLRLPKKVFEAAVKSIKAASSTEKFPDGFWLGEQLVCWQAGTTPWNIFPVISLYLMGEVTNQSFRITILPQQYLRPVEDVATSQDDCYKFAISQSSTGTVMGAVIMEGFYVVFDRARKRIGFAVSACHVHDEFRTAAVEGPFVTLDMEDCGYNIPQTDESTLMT
Assay: HTRF BACE1 enzyme activity assay (long peptide Bi27)
Format: biochemical
Details: purified affinity matured Fabs
Protocol: The HTRF assay was performed as follows. […] The proteolytic reaction mixture was incubated at ambient temperature for 75 minutes and was quenched by the addition of 5 μL HTRF detection mixture containing 2 nM Streptavidin-D2 and 150 nM of 6E10 anti-amyloid beta antibody (Covance, Emoryville, Calif.) labeled with Europium cryptate in detection buffer (200 mM Tris pH 8.0, 20 mM EDTA, 0.1% BSA, and 0.8M KF). The final reaction mixture was incubated at ambient temperature for 60 minutes and the TR-FRET signal was measured using an EnVision Multilabel Plate Reader™ (Perkin-Elmer) at an excitation wavelength of 320 nm and emission wavelengths of 615 and 665 nm. Reactions lacking BACE1 enzyme (0 BACE) and reactions containing lacking anti-BACE1 antibodies (PBS (100% BACE1 Activity) were used as controls.
Fab proteins of 6 clones were purified and subjected for HTRF enzyme activity assay, as described above.
The affinity matured YW412.8.31 anti-BACE1 antibody was tested in a HTRF assay as described in Example 1. […] Additionally, reactions using a short FRET peptide (Rh-[…]-quencher (SEQ ID NO:54), Invitrogen) were also performed identically to the HTRF reactions. The resulting fluorogenic products from the control reactions were measured as above, but at an excitation wavelength of 545 nm and an emission wavelength of 585 nm. Obtained data were analyzed using GraphPad Prism 5™ (LaJolla, Calif.).

| Molecule | inhibition activity compared to parent Fab |
| --- | --- |
| B1 | significant improved inhibition |
| B2 | lost its inhibition activity |
